According to article PMC4760375, “A dual phosphorylation switch controls 14-3-3-dependent cell surface expression of TASK-1” (Journal of Cell Science, 2016):
One block for each molecule: values may come before it. Non-standard residues stand in square brackets, D forms with d. No end group written: not given here. pS = N[C@@H](COP(=O)(O)O)C(=O)O

B3: 14-3-3η (natural protein)
chain: MGDREQLLQRARLAEQAERYDDMASAMKAVTELNEPLSNEDRNLLSVAYKNVVGARRSSWRVISSIEQKTMADGNEKKLEKVKAYREKIEKELETVCNDVLSLLDKFLIKNCNDFQYESKVFYLKMKGDYYRYLAEVASGEKKNSVVEASEAAYKEAFEISKEQMQPTHPIRLGLALNFSVFYYEIQNAPEQACLLAKQAFDDAIAELDTLNEDSYKDSTLIMQLLRDNLTLWTSDQQDEEAGEGN

Experiments:
[1] = target: GST-tagged TASK-3 C-terminal 15 residues fusion protein, phosphorylated with PKA catalytic subunit (human) (UniProt Q9NPC2); experiment: SPR; GST fusion protein captured by an anti-GST antibody on an HC1000m chip, phosphorylated on the chip with PKA catalytic subunit; 14-3-3 proteins as analyte; 20°C; 150 mM NaCl, 20 mM HEPES, 0.005% (v/v) Tween 20, pH 7.5; equilibrium binding isotherms
[2] = target: doubly phosphorylated TASK-1 C-terminal fluorescent peptide (pS392 and pS393) (human) (UniProt O14649); experiment: fluorescence polarisation; 10 nM fluorescein-labelled peptide titrated with 14-3-3 protein (1 nM to 120 µM in the results, 100 µM to 1 nM in the methods); 20 mM MOPS, 150 mM NaCl, 0.005% (v/v) CHAPS pH 7.0; room temperature; monophasic fit
[3] = target: TASK-1 pS392 C-terminal fluorescent peptide (human) (UniProt O14649); experiment: as above
[4] = target: TASK-3 pS373 C-terminal fluorescent peptide (last 15 amino acids) (human) (UniProt Q9NPC2); experiment: as above
14-3-3ε [5] = target: T1, 14-3-3ε (human, UniProt P62258 1-255); experiment: fluorescence polarization titration; conditions: reference: unphosphorylated peptide
T1 chain: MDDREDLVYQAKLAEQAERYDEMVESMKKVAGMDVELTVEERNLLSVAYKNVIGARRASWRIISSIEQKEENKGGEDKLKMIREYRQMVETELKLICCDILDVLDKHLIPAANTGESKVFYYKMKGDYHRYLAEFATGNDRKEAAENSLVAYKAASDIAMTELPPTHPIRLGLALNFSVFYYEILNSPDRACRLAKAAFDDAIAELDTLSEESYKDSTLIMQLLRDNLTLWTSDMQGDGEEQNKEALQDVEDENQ

14-3-3τ [6] = target: 14-3-3τ (UniProt P27348); experiment: fluorescence polarization titration; conditions: reference: unphosphorylated peptide; sites S373
14-3-3ζ [7] = target: 14-3-3ζ (UniProt P63104); experiment: fluorescence polarization titration; conditions: reference: unphosphorylated peptide
14-3-3γ [8] = target: 14-3-3γ (UniProt P61981); experiment: fluorescence polarization titration; conditions: reference: unphosphorylated peptide
14-3-3β [9] = target: T2, 14-3-3β (human, UniProt P31946 1-246); experiment: fluorescence polarization titration; conditions: reference: unphosphorylated peptide; sites S373
T2 chain: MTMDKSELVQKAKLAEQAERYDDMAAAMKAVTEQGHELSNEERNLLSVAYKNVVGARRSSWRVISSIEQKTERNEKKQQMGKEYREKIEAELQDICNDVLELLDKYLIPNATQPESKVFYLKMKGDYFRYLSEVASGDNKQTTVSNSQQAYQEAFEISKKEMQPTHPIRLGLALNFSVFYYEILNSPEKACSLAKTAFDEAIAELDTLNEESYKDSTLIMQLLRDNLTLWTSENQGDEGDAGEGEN

14-3-3η [10] = target: 14-3-3η (UniProt Q04917); experiment: fluorescence polarization titration; conditions: reference: unphosphorylated peptide; sites S393
14-3-3σ [11] = target: T3, 14-3-3σ (human, UniProt P31947 1-248); experiment: fluorescence polarization titration; conditions: reference: unphosphorylated peptide; sites S393
T3 chain: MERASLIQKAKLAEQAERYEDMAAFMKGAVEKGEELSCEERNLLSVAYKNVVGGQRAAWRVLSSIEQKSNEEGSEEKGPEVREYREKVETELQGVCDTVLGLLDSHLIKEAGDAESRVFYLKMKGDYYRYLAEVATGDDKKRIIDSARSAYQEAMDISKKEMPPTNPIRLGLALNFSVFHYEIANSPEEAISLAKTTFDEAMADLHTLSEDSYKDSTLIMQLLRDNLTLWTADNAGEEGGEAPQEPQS

[12] = target: TASK-1 pS393 C-terminal fluorescent peptide (last 15 amino acids) (human) (UniProt O14649); experiment: fluorescence polarisation; 10 nM fluorescein-labelled peptide titrated with 14-3-3 protein (1 nM to 120 µM in the results, 100 µM to 1 nM in the methods); 20 mM MOPS, 150 mM NaCl, 0.005% (v/v) CHAPS pH 7.0; room temperature; monophasic fit
[13] = target: T4, TASK-3 pS373 ΔV374 C-terminal fluorescent peptide (human, UniProt Q9NPC2 360-374, ΔV374, also: fluorescein label, position not given here); experiment: as above; conditions: both partners purified
T4 construct: TASK-3 (KCNK9), human, C-terminal peptide with phosphorylated S373 but lacking the C-terminal valine V374; ends at pS373; source: synthetic peptide, bought: Peps4Life Sciences
T4 peptide (looked up): SFTDHQRLMKRRK[pS]

[14] = target: T5, GST-tagged TASK-3 C-terminal 15 residues fusion protein, phosphorylated with PKA catalytic subunit (human, UniProt Q9NPC2 360-374); experiment: SPR
T5 chain: {GST}-SFTDHQRLMKRRK[pS]V

14-3-3ε [15] = target: T1, 14-3-3ε; experiment: FP
14-3-3ζ [16] = target: T6, 14-3-3ζ (human, UniProt P63104 1-245); experiment: FP
T6 chain: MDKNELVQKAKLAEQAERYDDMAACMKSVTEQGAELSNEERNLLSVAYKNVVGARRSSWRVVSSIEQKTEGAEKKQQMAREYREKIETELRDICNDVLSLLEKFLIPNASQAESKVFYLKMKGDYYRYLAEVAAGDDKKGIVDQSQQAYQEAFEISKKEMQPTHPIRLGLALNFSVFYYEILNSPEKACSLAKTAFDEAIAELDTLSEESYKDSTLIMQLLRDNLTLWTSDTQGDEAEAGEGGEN

14-3-3γ [17] = target: T7, 14-3-3γ (human, UniProt P61981 1-247); experiment: FP
T7 chain: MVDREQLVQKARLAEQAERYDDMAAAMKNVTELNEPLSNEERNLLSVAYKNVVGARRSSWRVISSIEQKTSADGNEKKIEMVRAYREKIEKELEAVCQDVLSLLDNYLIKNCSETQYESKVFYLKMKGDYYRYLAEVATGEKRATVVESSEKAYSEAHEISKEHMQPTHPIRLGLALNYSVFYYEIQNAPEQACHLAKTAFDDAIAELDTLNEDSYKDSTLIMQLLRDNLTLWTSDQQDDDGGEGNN

14-3-3τ [18] = target: T8, 14-3-3τ (human, UniProt P27348 1-245); experiment: FP
T8 chain: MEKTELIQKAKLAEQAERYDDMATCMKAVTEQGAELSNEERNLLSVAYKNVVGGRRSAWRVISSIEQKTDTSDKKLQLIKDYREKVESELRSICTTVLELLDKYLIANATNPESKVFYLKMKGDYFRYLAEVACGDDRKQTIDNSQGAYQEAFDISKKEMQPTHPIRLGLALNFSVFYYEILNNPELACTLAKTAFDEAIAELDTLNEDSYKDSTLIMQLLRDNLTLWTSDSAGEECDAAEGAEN

14-3-3β [19] = target: T2, 14-3-3β; experiment: FP
14-3-3σ [20] = target: T3, 14-3-3σ; experiment: FP
14-3-3η [21] = target: B3; experiment: FP

Molecule: 14-3-3γ (from UniProt P61981 1-247) (natural protein)
- Kd [1]: 0.045 µM
- Kd [2]: 200 µM
- Kd [3]: 100 µM

Molecule: 14-3-3σ (from UniProt P31947 1-248) (natural protein)
- Kd [1]: 0.742 µM
- Kd [3]: 100 µM
- Kd [4]: 3.6 µM

B1: 14-3-3β (natural protein, human, UniProt P31946 1-246, looked up)
chain: MTMDKSELVQKAKLAEQAERYDDMAAAMKAVTEQGHELSNEERNLLSVAYKNVVGARRSSWRVISSIEQKTERNEKKQQMGKEYREKIEAELQDICNDVLELLDKYLIPNATQPESKVFYLKMKGDYFRYLSEVASGDNKQTTVSNSQQAYQEAFEISKKEMQPTHPIRLGLALNFSVFYYEILNSPEKACSLAKTAFDEAIAELDTLNEESYKDSTLIMQLLRDNLTLWTSENQGDEGDAGEGEN
notes: 14-3-3 protein beta, human; open reading frame inserted into pMAL2Cx; also called 14-3-3 beta
- Kd [3]: 100 µM
- Kd [12]: 7.5 µM
- fold reduction of affinity against the TASK-3 pS373 peptide with V374 [13]: 3 fold
- Kd [14]: 0.181 µM

B2: 14-3-3ε (natural protein, human, UniProt P62258 1-255, looked up)
chain: MDDREDLVYQAKLAEQAERYDEMVESMKKVAGMDVELTVEERNLLSVAYKNVIGARRASWRIISSIEQKEENKGGEDKLKMIREYRQMVETELKLICCDILDVLDKHLIPAANTGESKVFYYKMKGDYHRYLAEFATGNDRKEAAENSLVAYKAASDIAMTELPPTHPIRLGLALNFSVFYYEILNSPDRACRLAKAAFDDAIAELDTLSEESYKDSTLIMQLLRDNLTLWTSDMQGDGEEQNKEALQDVEDENQ
notes: 14-3-3 protein epsilon, human; open reading frame inserted into pMAL2Cx; also called 14-3-3 epsilon
- Kd [3]: 100 µM
- fold reduction of affinity against the TASK-3 pS373 peptide with V374 [13]: 23 fold
- Kd [14]: 0.15 µM

Molecule: B3
- Kd [3]: 100 µM
- Kd [4]: 0.11 µM
- Kd [14]: 0.115 µM

Further lines, results first:

- binding against the reference (14-3-3ε [5]; sites S373): gained
- binding against the reference (14-3-3τ [6]): gained
- binding against the reference (14-3-3ζ [7]; sites S373): gained
- binding against the reference (14-3-3γ [8]; sites S373): gained
- binding against the reference (14-3-3β [9]): gained
Molecule: TASK-3 last 15 amino acids of the C-terminus (from UniProt Q9NPC2) pS373 peptide

- binding against the reference (14-3-3ε [5]; sites S393): gained
- binding against the reference (14-3-3η [10]): gained
- binding against the reference (14-3-3σ [11]): gained
- binding against the reference (14-3-3ζ [7]; sites S393): gained
- binding against the reference (14-3-3γ [8]; sites S393): gained
Molecule: TASK-1 last 15 amino acids of the C-terminus (from UniProt O14649) pS393 peptide

- Kd (14-3-3ε [15]): 0.8 µM
- Kd (14-3-3ζ [16]): 1 µM
- Kd (14-3-3γ [17]): 0.15 µM
- Kd (14-3-3τ [18]): 0.22 µM
- Kd (14-3-3β [19]): 0.37 µM
Molecule: SFTDHQRLMKRRK[pS]V (also: fluorescein label, position not given here) [TASK-3 pS373 C-terminal fluorescent peptide (last 15 amino acids)]

- Kd (14-3-3ε [15]): 29 µM
- Kd (14-3-3ζ [16]): 23 µM
- Kd (14-3-3γ [17]): 9.8 µM
- Kd (14-3-3σ [20]): 36 µM
- Kd (14-3-3η [21]): 9.2 µM
Molecule: SLSTFRGLMKRRS[pS]V (also: fluorescein label, position not given here) [TASK-1 pS393 C-terminal fluorescent peptide (last 15 amino acids)]
